Experimental data taken from US20160008485A1 (Pfizer, published 2016).
Values joined by “and” are separate entries in the source; they are usually repeats but may differ in a detail not shown here. Equal values may be shown once.

Target: T1, human FcRn (human, UniProt P55899 24-297; P61769 21-119, limits assumed, biotinylated through an engineered Avi-tag)
T1 construct: Immobilised on a streptavidin chip; not shown: engineered Avi-tag
Assay: BIAcore SPR, steady state, pH 6.0, biotinylated human FcRn on SA chip

T1 sequence (P55899 24-297 limits assumed, chain 1 of 2): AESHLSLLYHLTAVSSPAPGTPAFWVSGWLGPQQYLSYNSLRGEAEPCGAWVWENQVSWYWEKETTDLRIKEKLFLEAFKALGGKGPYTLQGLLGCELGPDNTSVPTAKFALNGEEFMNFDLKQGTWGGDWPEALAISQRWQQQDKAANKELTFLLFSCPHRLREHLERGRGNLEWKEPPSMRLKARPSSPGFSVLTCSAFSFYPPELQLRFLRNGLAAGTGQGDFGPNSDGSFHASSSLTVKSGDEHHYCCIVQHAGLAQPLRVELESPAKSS
T1 sequence (P61769 21-119 limits assumed, chain 2 of 2): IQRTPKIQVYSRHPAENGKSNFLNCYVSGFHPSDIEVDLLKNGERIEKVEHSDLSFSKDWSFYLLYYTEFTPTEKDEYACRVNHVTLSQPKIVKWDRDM

Binder | Kd
5T4-E380C (antibody, human IgG1, kappa) heavy: not shown light: DIQMTQSPSSLSASVGDRVTITCKASQSVSNDVAWYQQKPGKAPKLLIYFATNRYTGVPSRFSGSGYGTDFTLTISSLQPEDFATYYCQQDYSSPWTFGQGTKVEIKRTVAAPSVFIFPPSDEQLKSGTASVVCLLNNFYPREAKVQWKVDNALQSGNSQESVTEQDSKDSTYSLSSTLTLSKADYEKHKVYACEVTHQGLSSPVTKSFNRGEC | 390 nM
5T4-K392C (antibody, human IgG1, kappa) heavy: not shown light: DIQMTQSPSSLSASVGDRVTITCKASQSVSNDVAWYQQKPGKAPKLLIYFATNRYTGVPSRFSGSGYGTDFTLTISSLQPEDFATYYCQQDYSSPWTFGQGTKVEIKRTVAAPSVFIFPPSDEQLKSGTASVVCLLNNFYPREAKVQWKVDNALQSGNSQESVTEQDSKDSTYSLSSTLTLSKADYEKHKVYACEVTHQGLSSPVTKSFNRGEC | 384 nM
5T4-S440C (antibody, IgG1) heavy: not shown light: DIQMTQSPSSLSASVGDRVTITCKASQSVSNDVAWYQQKPGKAPKLLIYFATNRYTGVPSRFSGSGYGTDFTLTISSLQPEDFATYYCQQDYSSPWTFGQGTKVEIKRTVAAPSVFIFPPSDEQLKSGTASVVCLLNNFYPREAKVQWKVDNALQSGNSQESVTEQDSKDSTYSLSSTLTLSKADYEKHKVYACEVTHQGLSSPVTKSFNRGEC | 608 nM
5T4-L398C (antibody, human IgG1, kappa) heavy: not shown light: DIQMTQSPSSLSASVGDRVTITCKASQSVSNDVAWYQQKPGKAPKLLIYFATNRYTGVPSRFSGSGYGTDFTLTISSLQPEDFATYYCQQDYSSPWTFGQGTKVEIKRTVAAPSVFIFPPSDEQLKSGTASVVCLLNNFYPREAKVQWKVDNALQSGNSQESVTEQDSKDSTYSLSSTLTLSKADYEKHKVYACEVTHQGLSSPVTKSFNRGEC | 513 nM

Target: T2, human truncated recombinant 5T4 protein (5T4-tm-_myc_his) (human, UniProt Q13641 32-355)
T2 construct: extracellular domain; Coated on the ELISA plate; construct cited to Boghaert et al. 2008; also called 5T4 antigen; not shown: Myc and histidine tags
T2 sequence (looked up): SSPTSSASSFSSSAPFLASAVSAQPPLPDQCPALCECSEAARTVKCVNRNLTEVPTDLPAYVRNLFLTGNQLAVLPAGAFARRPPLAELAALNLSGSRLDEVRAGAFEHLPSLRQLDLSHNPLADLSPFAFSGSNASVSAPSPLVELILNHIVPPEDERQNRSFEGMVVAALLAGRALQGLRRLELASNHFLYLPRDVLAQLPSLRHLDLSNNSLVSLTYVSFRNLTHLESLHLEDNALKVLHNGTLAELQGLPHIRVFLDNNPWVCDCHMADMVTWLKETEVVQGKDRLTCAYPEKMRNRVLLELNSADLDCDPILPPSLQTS
Assay: competition ELISA on plate-coated 5T4-tm-_myc_his; competitor: biotinylated wild type anti-5T4 antibody at 1.3 nM, detected with streptavidin-HRP, OD450

Binder | IC50 (read off the curve) | binding result
5T4-T359C (antibody, human IgG1, kappa) heavy: not shown light: DIQMTQSPSSLSASVGDRVTITCKASQSVSNDVAWYQQKPGKAPKLLIYFATNRYTGVPSRFSGSGYGTDFTLTISSLQPEDFATYYCQQDYSSPWTFGQGTKVEIKRTVAAPSVFIFPPSDEQLKSGTASVVCLLNNFYPREAKVQWKVDNALQSGNSQESVTEQDSKDSTYSLSSTLTLSKADYEKHKVYACEVTHQGLSSPVTKSFNRGEC | ~6 nM | –
5T4-F404C (antibody, human IgG1, kappa) heavy: not shown light: DIQMTQSPSSLSASVGDRVTITCKASQSVSNDVAWYQQKPGKAPKLLIYFATNRYTGVPSRFSGSGYGTDFTLTISSLQPEDFATYYCQQDYSSPWTFGQGTKVEIKRTVAAPSVFIFPPSDEQLKSGTASVVCLLNNFYPREAKVQWKVDNALQSGNSQESVTEQDSKDSTYSLSSTLTLSKADYEKHKVYACEVTHQGLSSPVTKSFNRGEC | – | binds
5T4-S440C (antibody, IgG1) heavy: not shown light: DIQMTQSPSSLSASVGDRVTITCKASQSVSNDVAWYQQKPGKAPKLLIYFATNRYTGVPSRFSGSGYGTDFTLTISSLQPEDFATYYCQQDYSSPWTFGQGTKVEIKRTVAAPSVFIFPPSDEQLKSGTASVVCLLNNFYPREAKVQWKVDNALQSGNSQESVTEQDSKDSTYSLSSTLTLSKADYEKHKVYACEVTHQGLSSPVTKSFNRGEC | ~6 nM | –
5T4-L398C (antibody, human IgG1, kappa) heavy: not shown light: DIQMTQSPSSLSASVGDRVTITCKASQSVSNDVAWYQQKPGKAPKLLIYFATNRYTGVPSRFSGSGYGTDFTLTISSLQPEDFATYYCQQDYSSPWTFGQGTKVEIKRTVAAPSVFIFPPSDEQLKSGTASVVCLLNNFYPREAKVQWKVDNALQSGNSQESVTEQDSKDSTYSLSSTLTLSKADYEKHKVYACEVTHQGLSSPVTKSFNRGEC | ~7 nM | –

Target: T3, human 5T4 antigen on cells (MDAMB435/5T4 transfectants; MDA-MB-468) (human, UniProt Q13641 32-420)
T3 sequence (looked up): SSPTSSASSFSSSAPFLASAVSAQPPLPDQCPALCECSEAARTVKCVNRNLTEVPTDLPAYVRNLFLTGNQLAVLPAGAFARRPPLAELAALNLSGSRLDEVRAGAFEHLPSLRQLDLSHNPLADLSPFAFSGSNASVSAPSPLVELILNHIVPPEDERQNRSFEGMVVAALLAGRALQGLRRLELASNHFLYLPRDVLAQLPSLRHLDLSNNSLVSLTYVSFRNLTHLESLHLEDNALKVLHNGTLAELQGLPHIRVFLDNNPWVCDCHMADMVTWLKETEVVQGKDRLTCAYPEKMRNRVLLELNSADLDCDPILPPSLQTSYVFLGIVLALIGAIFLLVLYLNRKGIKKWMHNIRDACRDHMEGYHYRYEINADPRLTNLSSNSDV
Assay: cell-based or functional assay

Binder | IC50, growth inhibition (MTS), MDA-MB-468 cells (5T4 expression 2+) | IC-50, growth inhibition (MTS), MDAMB435/5T4 cells (5T4 expression 3+)
5T4-E380C+L443C-mcMMAD (antibody, mcMMAD on engineered Cys 380 and Cys 443 (EU)) heavy: not shown light: DIQMTQSPSSLSASVGDRVTITCKASQSVSNDVAWYQQKPGKAPKLLIYFATNRYTGVPSRFSGSGYGTDFTLTISSLQPEDFATYYCQQDYSSPWTFGQGTKVEIKRTVAAPSVFIFPPSDEQLKSGTASVVCLLNNFYPREAKVQWKVDNALQSGNSQESVTEQDSKDSTYSLSSTLTLSKADYEKHKVYACEVTHQGLSSPVTKSFNRGEC | 3300 ng/mL | 79 ng ADC/ml
5T4-V422C-vcMMAD (antibody, human IgG1, kappa, vcMMAD (mcValCitPABC-MMAD) on engineered Cys 422 (EU)) heavy: not shown light: DIQMTQSPSSLSASVGDRVTITCKASQSVSNDVAWYQQKPGKAPKLLIYFATNRYTGVPSRFSGSGYGTDFTLTISSLQPEDFATYYCQQDYSSPWTFGQGTKVEIKRTVAAPSVFIFPPSDEQLKSGTASVVCLLNNFYPREAKVQWKVDNALQSGNSQESVTEQDSKDSTYSLSSTLTLSKADYEKHKVYACEVTHQGLSSPVTKSFNRGEC | – | 15 ng ADC/ml
5T4-L398C-vcMMAD (antibody, human IgG1, kappa, vcMMAD (mcValCitPABC-MMAD) on engineered Cys 398 (EU)) heavy: not shown light: DIQMTQSPSSLSASVGDRVTITCKASQSVSNDVAWYQQKPGKAPKLLIYFATNRYTGVPSRFSGSGYGTDFTLTISSLQPEDFATYYCQQDYSSPWTFGQGTKVEIKRTVAAPSVFIFPPSDEQLKSGTASVVCLLNNFYPREAKVQWKVDNALQSGNSQESVTEQDSKDSTYSLSSTLTLSKADYEKHKVYACEVTHQGLSSPVTKSFNRGEC | – | 14 ng ADC/ml
5T4-E380C+V422C-mcMMAD (antibody, human IgG1, kappa, mcMMAD on engineered Cys 380 and Cys 422 (EU)) heavy: not shown light: DIQMTQSPSSLSASVGDRVTITCKASQSVSNDVAWYQQKPGKAPKLLIYFATNRYTGVPSRFSGSGYGTDFTLTISSLQPEDFATYYCQQDYSSPWTFGQGTKVEIKRTVAAPSVFIFPPSDEQLKSGTASVVCLLNNFYPREAKVQWKVDNALQSGNSQESVTEQDSKDSTYSLSSTLTLSKADYEKHKVYACEVTHQGLSSPVTKSFNRGEC | 5000 ng/mL | 100 ng ADC/ml
5T4-E380C+L398C-mcMMAD (antibody, human IgG1, kappa, mcMMAD on engineered Cys 380 and Cys 398 (EU)) heavy: not shown light: DIQMTQSPSSLSASVGDRVTITCKASQSVSNDVAWYQQKPGKAPKLLIYFATNRYTGVPSRFSGSGYGTDFTLTISSLQPEDFATYYCQQDYSSPWTFGQGTKVEIKRTVAAPSVFIFPPSDEQLKSGTASVVCLLNNFYPREAKVQWKVDNALQSGNSQESVTEQDSKDSTYSLSSTLTLSKADYEKHKVYACEVTHQGLSSPVTKSFNRGEC | 5100 ng/mL | 79 ng ADC/ml
5T4-E380C-vcMMAD (antibody, human IgG1, kappa, vcMMAD (mcValCitPABC-MMAD) on engineered Cys 380 (EU)) heavy: not shown light: DIQMTQSPSSLSASVGDRVTITCKASQSVSNDVAWYQQKPGKAPKLLIYFATNRYTGVPSRFSGSGYGTDFTLTISSLQPEDFATYYCQQDYSSPWTFGQGTKVEIKRTVAAPSVFIFPPSDEQLKSGTASVVCLLNNFYPREAKVQWKVDNALQSGNSQESVTEQDSKDSTYSLSSTLTLSKADYEKHKVYACEVTHQGLSSPVTKSFNRGEC | – | 15 ng ADC/ml
5T4-L443C-vcMMAD (antibody, vcMMAD (mcValCitPABC-MMAD) on engineered Cys 443 (EU)) heavy: not shown light: DIQMTQSPSSLSASVGDRVTITCKASQSVSNDVAWYQQKPGKAPKLLIYFATNRYTGVPSRFSGSGYGTDFTLTISSLQPEDFATYYCQQDYSSPWTFGQGTKVEIKRTVAAPSVFIFPPSDEQLKSGTASVVCLLNNFYPREAKVQWKVDNALQSGNSQESVTEQDSKDSTYSLSSTLTLSKADYEKHKVYACEVTHQGLSSPVTKSFNRGEC | 1400 ng/mL | 40 ng ADC/ml
5T4-L398C+L443C-mcMMAD (antibody, mcMMAD on engineered Cys 398 and Cys 443 (EU)) heavy: not shown light: DIQMTQSPSSLSASVGDRVTITCKASQSVSNDVAWYQQKPGKAPKLLIYFATNRYTGVPSRFSGSGYGTDFTLTISSLQPEDFATYYCQQDYSSPWTFGQGTKVEIKRTVAAPSVFIFPPSDEQLKSGTASVVCLLNNFYPREAKVQWKVDNALQSGNSQESVTEQDSKDSTYSLSSTLTLSKADYEKHKVYACEVTHQGLSSPVTKSFNRGEC | 5500 ng/mL and 7100 ng/mL | –
5T4-L398C+V422C-mcMMAD (antibody, human IgG1, kappa, mcMMAD on engineered Cys 398 and Cys 422 (EU)) heavy: not shown light: DIQMTQSPSSLSASVGDRVTITCKASQSVSNDVAWYQQKPGKAPKLLIYFATNRYTGVPSRFSGSGYGTDFTLTISSLQPEDFATYYCQQDYSSPWTFGQGTKVEIKRTVAAPSVFIFPPSDEQLKSGTASVVCLLNNFYPREAKVQWKVDNALQSGNSQESVTEQDSKDSTYSLSSTLTLSKADYEKHKVYACEVTHQGLSSPVTKSFNRGEC | 17000 ng/mL | 100 ng ADC/ml
5T4-K392C+L443C-mcMMAD (antibody, mcMMAD on engineered Cys 392 and Cys 443 (EU)) heavy: not shown light: DIQMTQSPSSLSASVGDRVTITCKASQSVSNDVAWYQQKPGKAPKLLIYFATNRYTGVPSRFSGSGYGTDFTLTISSLQPEDFATYYCQQDYSSPWTFGQGTKVEIKRTVAAPSVFIFPPSDEQLKSGTASVVCLLNNFYPREAKVQWKVDNALQSGNSQESVTEQDSKDSTYSLSSTLTLSKADYEKHKVYACEVTHQGLSSPVTKSFNRGEC | 30000 ng/mL | 98 ng ADC/ml
5T4-K392C-mcMMAD (antibody, human IgG1, kappa, mcMMAD on engineered Cys 392 (EU)) heavy: not shown light: DIQMTQSPSSLSASVGDRVTITCKASQSVSNDVAWYQQKPGKAPKLLIYFATNRYTGVPSRFSGSGYGTDFTLTISSLQPEDFATYYCQQDYSSPWTFGQGTKVEIKRTVAAPSVFIFPPSDEQLKSGTASVVCLLNNFYPREAKVQWKVDNALQSGNSQESVTEQDSKDSTYSLSSTLTLSKADYEKHKVYACEVTHQGLSSPVTKSFNRGEC | 32000 ng/mL | 160 ng ADC/ml
